Target: GABARAP (UniProt O95166)
Experiment: GST-GABARAP pull-down from cell lysate
Details: reference: wild type

Substance	binding against the reference (sites S65)	binding against the reference (sites T54)
ORP8 (from UniProt Q9BZF1) S65A	weaker	–
ORP8 (from UniProt Q9BZF1) T54A	–	weaker

Reference: PMC10501187
